Results on 4 molecules are retold here after US20190134213A1 (Bicycle, published 2019).

Test [1] concerns the target T1, MT1-MMP hemopexin-like repeats (MT1-MMP hemopexin domain), residues Cys319-Gly511 from the human gene, … (human, UniProt P50281 319-511).
T1 construct: range 319-511; Secreted soluble protein expressed in HEK293 cells, purified by Ni-NTA and gel filtration; also called hemopexin of MT1-MMP; MMP14
As to the kind of experiment: fluorescence polarisation competition with a fluoresceinated bicyclic tracer on MT1-MMP hemopexin domain. An excerpt: (§1) Here, a pre-formed complex of PEX with the fluorescent PEX-binding tracer is titrated with free, non-fluoresceinated bicyclic peptide. Since all 17-69-based peptides are expected to bind at the same site, the titrant will displace the fluorescent tracer from PEX. Dissociation of the complex can be measured quantitatively, and the Kd of the competitor (titrant) to the target protein determined. The advantage of the competition method is that the affinities of non-fluoresceinated bicyclic peptides can be determined accurately and rapidly.
(§2) Subsequently, the non-fluorescent competitor bicyclic peptide (usually just the bicycle core sequence) is titrated, such that it displaces the fluorescent tracer from the target protein. The displacement of the tracer is measured and associated with a drop in fluorescence polarisation. The drop in fluorescence polarisation is proportional to the fraction of target protein bound with the non-fluorescent titrant, and thus is a measure of the affinity of titrant to target protein.
(§3) The raw data is fit to the analytical solution of the cubic equation that describes the equilibria between fluorescent tracer, titrant, and binding protein. The fit requires the value of the affinity of fluorescent tracer to the target protein, which can be determined separately by direct binding FP experiments (see previous section). […]
A general note: In fluorescence polarisation assays a small probe gives low polarisation when free and higher when bound to something large.

Test [2] addresses T1, MT1-MMP hemopexin-like repeats (MT1-MMP …). As to the kind of experiment: fluorescence polarisation competition, tracer 17-69-07-N040, human MT1-MMP hemopexin domain (n = 2).
Description: as §1, §2, §3

Starred links: 1 amine or outer side, 2 acyl side, 3 side chain; linkers in the order of their positions; H or OH if unused. Positions of bridges follow the written chain, without caps; N, C: chain ends. Non-standard residues stand in square brackets, D forms with d. Sar10 = ten sarcosines (spacer), CN(CC(=O)N(C)CC(=O)N(C)CC(=O)N(C)CC(=O)N(C)CC(=O)[*:2])C(=O)CN(C)C(=O)CN(C)C(=O)CN(C)C(=O)CN(C)C(=O)CN(C)[*:1]; SMPP‑derived hindered disulphide linker = hindered disulphide linker derived from SMPP, with two methyl groups, carrying the toxin DM1; 1Nal = N[C@@H](Cc1cccc2ccccc12)C(=O)O; TBMB = c1c(C[*:1])cc(C[*:3])cc1C[*:2]; Tle = CC(C)(C)[C@H](N)C(=O)O; βAla = NCCC(=O)O; DM1 = toxin

B1: 17-69-07-N241 (peptide)
peptide: H-[βAla][Sar10]AC[dA]NE[1Nal][dA]CEDFYD[Tle]C-NH2
modifications: linker 4-10-17 via TBMB
SMILES: C[C@H](NC(=O)CN(C)C(=O)CN(C)C(=O)CN(C)C(=O)CN(C)C(=O)CN(C)C(=O)CN(C)C(=O)CN(C)C(=O)CN(C)C(=O)CN(C)C(=O)CN(C)C(=O)CCN)C(=O)N[C@H]1CSCc2cc3cc(c2)CSC[C@H](NC(=O)[C@@H](C)NC(=O)[C@H](Cc2cccc4ccccc24)NC(=O)[C@H](CCC(=O)O)NC(=O)[C@H](CC(N)=O)NC(=O)[C@@H](C)NC1=O)C(=O)N[C@@H](CCC(=O)O)C(=O)N[C@@H](CC(=O)O)C(=O)N[C@@H](Cc1ccccc1)C(=O)N[C@@H](Cc1ccc(O)cc1)C(=O)N[C@@H](CC(=O)O)C(=O)N[C@@H](C(C)(C)C)C(=O)N[C@H](C(N)=O)CSC3
notes: Synthetic bicyclic peptide cyclised on TBMB; precursor of BT17BDC-28; also called bAla-Sar10-A-(17-69-07) D-Ala1 1Nal4 D-Ala5 tBuGly11; (bAla)-Sar10-AC(D-Ala)NE(1Nal)(D-Ala)CEDFYD(tBuGly)C
In test [1], B1 showed an equilibrium dissociation constant (Kd) of 1.21 nM.

B2: 17-69-07-N268 (peptide)
peptide: H-AC[dA]NE[1Nal][dA]CEDFYD[Tle]C-NH2
modifications: linker 2-8-15 via TBMB
SMILES: C[C@H](N)C(=O)N[C@H]1CSCc2cc3cc(c2)CSC[C@H](NC(=O)[C@@H](C)NC(=O)[C@H](Cc2cccc4ccccc24)NC(=O)[C@H](CCC(=O)O)NC(=O)[C@H](CC(N)=O)NC(=O)[C@@H](C)NC1=O)C(=O)N[C@@H](CCC(=O)O)C(=O)N[C@@H](CC(=O)O)C(=O)N[C@@H](Cc1ccccc1)C(=O)N[C@@H](Cc1ccc(O)cc1)C(=O)N[C@@H](CC(=O)O)C(=O)N[C@@H](C(C)(C)C)C(=O)N[C@H](C(N)=O)CSC3
notes: Synthetic bicyclic peptide cyclised on TBMB; lacks the bAla-Sar10 spacer of 17-69-07-N241; Precursor of BT17BDC-27; also called A-(17-69-07) D-Ala1 1Nal4 D-Ala5 tBuGly11; AC(D-Ala)NE(1Nal)(D-Ala)CEDFYD(tBuGly)C
In test [1], B2 showed a Kd of 1.7 nM.

B3: BT17BDC-27 (peptide)
peptide: {DM1-SMPP‑derived hindered disulphide linker}-AC[dA]NE[1Nal][dA]CEDFYD[Tle]C-NH2
modifications: linker 2-8-15 via TBMB
notes: also called Bicycle Drug Conjugate of 17-69-07-N268 with DM1
As for B3, the affinity in test [2], expressed as Kd, was 0.69 nM.

B4: BT17BDC-28 (peptide)
peptide: {DM1-SMPP‑derived hindered disulphide linker}-[βAla][Sar10]AC[dA]NE[1Nal][dA]CEDFYD[Tle]C-NH2
modifications: linker 4-10-17 via TBMB
notes: also called Bicycle Drug Conjugate of 17-69-07-N241 with DM1
For the molecule B4, in test [2], the Kd was 1.65 nM.

For orientation: Kd means the free concentration of one partner at which half of the binding sites on the other are occupied at equilibrium, for simple one-to-one binding. Read a high Kd as lower affinity.
